The supplement of paper PMC9112550, “Optimization of the antimicrobial peptide Bac7 by deep mutational scanning” (BMC Biology, 2022)

test system: Escherichia coli TOP10; test: shrunken log2 fold change of peptide-encoding DNA abundance (4.5 h post-induction vs induction); higher = less antimicrobial activity (less host growth inhibition); conditions: time post-induction: 4.5 h; library: site-saturation at positions 5, 18, 19, 20
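Also: peptides expressed intracellularly from a pBAD plasmid library in pooled LB shake-flask culture, induced with 0.3% L-arabinose, DNA abundance read by NGS, three biological replicates, DESeq2 with apeglm shrinkage.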

Q: RRIRCRPPRLPRPRPRPGTFPRP was tested. Which “shrunken log2 fold change” value did it give?
A: -0.0668

Q: How did the “shrunken log2 fold change” value turn out when RRIRGRPPRLPRPRPRPIHGPRP was run?
A: -0.161

Q: RRIRARPPRLPRPRPRPGIMPRP was tested. Which “shrunken log2 fold change” value did it give?
A: 0.113

Q: RRIRTRPPRLPRPRPRPWFFPRP was tested. Which “shrunken log2 fold change” value did it give?
A: -0.0908

Q: How did the “shrunken log2 fold change” value turn out when RRIRPRPPRLPRPRPRPEKNPRP was run?
A: 0.101

Q: Which “shrunken log2 fold change” value does the source give for RRIRNRPPRLPRPRPRPNNPPRP here?
A: -0.511

Q: Which “shrunken log2 fold change” value does the source give for RRIRNRPPRLPRPRPRPMPYPRP here?
A: 0.0291

Q: With RRIRTRPPRLPRPRPRPYMDPRP as the sequence, how does the “shrunken log2 fold change” value read?
A: -1.37

Q: How did the “shrunken log2 fold change” value turn out when RRIRFRPPRLPRPRPRPDFQPRP was run?
A: -0.546

Q: RRIRIRPPRLPRPRPRPYEAPRP was tested. Which “shrunken log2 fold change” value did it give?
A: -0.18

Q: For RRIRKRPPRLPRPRPRPFNLPRP, which “shrunken log2 fold change” value is on record?
A: -0.0494

Q: RRIRDRPPRLPRPRPRPNYDPRP was tested. Which “shrunken log2 fold change” value did it give?
A: -0.211

Q: RRIRNRPPRLPRPRPRPEWTPRP was tested. Which “shrunken log2 fold change” value did it give?
A: -0.0178

Q: How did the “shrunken log2 fold change” value turn out when RRIRLRPPRLPRPRPRPDEFPRP was run?
A: 0.0159

Q: Which “shrunken log2 fold change” value does the source give for RRIRIRPPRLPRPRPRPDYMPRP here?
A: -1.09

Q: For RRIRARPPRLPRPRPRPLQSPRP, which “shrunken log2 fold change” value is on record?
A: 0.625

Q: How did the “shrunken log2 fold change” value turn out when RRIRCRPPRLPRPRPRPVMIPRP was run?
A: -0.0658

Q: How did the “shrunken log2 fold change” value turn out when RRIRERPPRLPRPRPRPPTRPRP was run?
A: 0.254

Q: For RRIRFRPPRLPRPRPRPQHWPRP, which “shrunken log2 fold change” value is on record?
A: 0.0645

Q: With RRIRKRPPRLPRPRPRPALNPRP as the sequence, how does the “shrunken log2 fold change” value read?
A: 0.589

Q: For RRIRMRPPRLPRPRPRPRQKPRP, which “shrunken log2 fold change” value is on record?
A: 0.183

Q: How did the “shrunken log2 fold change” value turn out when RRIRIRPPRLPRPRPRPNYLPRP was run?
A: -0.171

Q: Which “shrunken log2 fold change” value does the source give for RRIRARPPRLPRPRPRPMNEPRP here?
A: 0.374

Q: RRIRNRPPRLPRPRPRPELTPRP was tested. Which “shrunken log2 fold change” value did it give?
A: 0.162

Q: How did the “shrunken log2 fold change” value turn out when RRIRIRPPRLPRPRPRPLRAPRP was run?
A: 0.367

Q: For RRIRRRPPRLPRPRPRPGEAPRP, which “shrunken log2 fold change” value is on record?
A: 0.752

Q: How did the “shrunken log2 fold change” value turn out when RRIRNRPPRLPRPRPRPTQIPRP was run?
A: 0.135

Q: With RRIRVRPPRLPRPRPRPHTKPRP as the sequence, how does the “shrunken log2 fold change” value read?
A: 0.11

Q: Which “shrunken log2 fold change” value does the source give for RRIRRRPPRLPRPRPRPICSPRP here?
A: 0.0991

Q: How did the “shrunken log2 fold change” value turn out when RRIRGRPPRLPRPRPRPCCYPRP was run?
A: 0.786

Q: RRIRIRPPRLPRPRPRPMTHPRP was tested. Which “shrunken log2 fold change” value did it give?
A: -0.996

Q: With RRIRSRPPRLPRPRPRPVYFPRP as the sequence, how does the “shrunken log2 fold change” value read?
A: -0.347

Q: With RRIRFRPPRLPRPRPRPQALPRP as the sequence, how does the “shrunken log2 fold change” value read?
A: -0.137

Q: How did the “shrunken log2 fold change” value turn out when RRIRTRPPRLPRPRPRPSCLPRP was run?
A: -0.624

Q: RRIRNRPPRLPRPRPRPSNSPRP was tested. Which “shrunken log2 fold change” value did it give?
A: -0.235

Q: RRIRARPPRLPRPRPRPRINPRP was tested. Which “shrunken log2 fold change” value did it give?
A: 0.105

Q: How did the “shrunken log2 fold change” value turn out when RRIRDRPPRLPRPRPRPWIRPRP was run?
A: -0.24

Q: RRIRLRPPRLPRPRPRPGLFPRP was tested. Which “shrunken log2 fold change” value did it give?
A: 0.157

Q: RRIRFRPPRLPRPRPRPGFTPRP was tested. Which “shrunken log2 fold change” value did it give?
A: -0.187

Q: For RRIRTRPPRLPRPRPRPSHIPRP, which “shrunken log2 fold change” value is on record?
A: -0.274

Q: With RRIRLRPPRLPRPRPRPCVWPRP as the sequence, how does the “shrunken log2 fold change” value read?
A: -0.0182

Q: RRIRQRPPRLPRPRPRPASDPRP was tested. Which “shrunken log2 fold change” value did it give?
A: 0.197

Q: How did the “shrunken log2 fold change” value turn out when RRIRWRPPRLPRPRPRPVFLPRP was run?
A: -0.0837

Q: With RRIRRRPPRLPRPRPRPYSVPRP as the sequence, how does the “shrunken log2 fold change” value read?
A: 0.0601

Q: For RRIRWRPPRLPRPRPRPCIWPRP, which “shrunken log2 fold change” value is on record?
A: 0.0256

Q: With RRIRMRPPRLPRPRPRPIQSPRP as the sequence, how does the “shrunken log2 fold change” value read?
A: 0.00351

Q: How did the “shrunken log2 fold change” value turn out when RRIRMRPPRLPRPRPRPIKSPRP was run?
A: -0.0237

Q: How did the “shrunken log2 fold change” value turn out when RRIRERPPRLPRPRPRPVAKPRP was run?
A: 0.197

Q: How did the “shrunken log2 fold change” value turn out when RRIRMRPPRLPRPRPRPPHVPRP was run?
A: 0.865

Q: RRIRRRPPRLPRPRPRPIHDPRP was tested. Which “shrunken log2 fold change” value did it give?
A: 0.169

Q: How did the “shrunken log2 fold change” value turn out when RRIRWRPPRLPRPRPRPMWGPRP was run?
A: 0.117

Q: With RRIRPRPPRLPRPRPRPIFHPRP as the sequence, how does the “shrunken log2 fold change” value read?
A: -0.0968

Q: For RRIRGRPPRLPRPRPRPIGDPRP, which “shrunken log2 fold change” value is on record?
A: 0.667

Q: With RRIRNRPPRLPRPRPRPTRHPRP as the sequence, how does the “shrunken log2 fold change” value read?
A: 0.162

Q: Which “shrunken log2 fold change” value does the source give for RRIRTRPPRLPRPRPRPIKEPRP here?
A: -0.253

Q: RRIRPRPPRLPRPRPRPGHRPRP was tested. Which “shrunken log2 fold change” value did it give?
A: 0.0675

Q: How did the “shrunken log2 fold change” value turn out when RRIRMRPPRLPRPRPRPGEHPRP was run?
A: 0.987

Q: How did the “shrunken log2 fold change” value turn out when RRIRARPPRLPRPRPRPKRDPRP was run?
A: 0.135

Q: RRIRSRPPRLPRPRPRPTEVPRP was tested. Which “shrunken log2 fold change” value did it give?
A: -0.125

Q: For RRIRVRPPRLPRPRPRPFTRPRP, which “shrunken log2 fold change” value is on record?
A: 0.114

Q: RRIRCRPPRLPRPRPRPMYSPRP was tested. Which “shrunken log2 fold change” value did it give?
A: -0.386

Q: Which “shrunken log2 fold change” value does the source give for RRIRIRPPRLPRPRPRPMIQPRP here?
A: 0.102

Q: With RRIRDRPPRLPRPRPRPWVSPRP as the sequence, how does the “shrunken log2 fold change” value read?
A: -0.0385

Q: With RRIRWRPPRLPRPRPRPNMAPRP as the sequence, how does the “shrunken log2 fold change” value read?
A: 0.345

Q: With RRIRGRPPRLPRPRPRPTRYPRP as the sequence, how does the “shrunken log2 fold change” value read?
A: 0.357

Q: RRIRSRPPRLPRPRPRPSPGPRP was tested. Which “shrunken log2 fold change” value did it give?
A: 0.312

Q: Which “shrunken log2 fold change” value does the source give for RRIRWRPPRLPRPRPRPCCAPRP here?
A: 0.47

Q: How did the “shrunken log2 fold change” value turn out when RRIRQRPPRLPRPRPRPEMVPRP was run?
A: -0.0549

Q: For RRIRFRPPRLPRPRPRPLLPPRP, which “shrunken log2 fold change” value is on record?
A: -0.142

Q: How did the “shrunken log2 fold change” value turn out when RRIRWRPPRLPRPRPRPPNEPRP was run?
A: 0.424

Q: How did the “shrunken log2 fold change” value turn out when RRIRSRPPRLPRPRPRPCVGPRP was run?
A: -0.0336

Q: With RRIRHRPPRLPRPRPRPFWKPRP as the sequence, how does the “shrunken log2 fold change” value read?
A: -0.0724

Q: How did the “shrunken log2 fold change” value turn out when RRIRSRPPRLPRPRPRPTAKPRP was run?
A: 0.528

Q: Which “shrunken log2 fold change” value does the source give for RRIRHRPPRLPRPRPRPMRQPRP here?
A: 0.143

Q: RRIRWRPPRLPRPRPRPTCSPRP was tested. Which “shrunken log2 fold change” value did it give?
A: 0.0967
